Source: paper PMC8795117

Legend:
[1] = target: BmdB (Thermoactinomyces vulgaris F-5595)
[2] = target: BmdB (Thermoactinomyces vulgaris F-5595); test: SEC; full-length BmdB and BmdC at 1–8 μM mixed (increasing BmdC, fixed BmdB), Superdex200 Increase 10/300, 50 mM Tris-HCl pH 7.5, 200 mM NaCl, 1 mM DTT
[3] = target: BmdC (Thermoactinomyces vulgaris F-5595); test: SEC; size-exclusion chromatography of BmdC alone (Supplementary Fig. 2e)

Substance	decrease in oxidation to bacillamide D in peptide synthesis assays [1] [%]	stoichiometry N (BmdB molecules per BmdC dimer) [2]	stoichiometry N [3]
BmdC_D225R (enzyme)	50		
BmdC (enzyme)		2	2
